The chains are these.
B1: PSD2 (parent)
chain: PLMGETQERERVLTHFSRRYCQCN
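Also: lentivirally expressed fusions sorted by FACS into six bins by GFP to DsRed ratio, PSI derived from sequencing read proportions per bin multiplied by bin number.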

The series covers variants of B1. Nature of the series: protein stability index of a GFP-peptide fusion (GPS, HEK-293T) (PSI 1-6); higher = more stable. The conditions noted are these: c terminus: a fixed tail appended.
Regarding PLMGEFQERERVLTHFSRRYCQCN [T6F], the protein stability index was determined as 2.22.
PLMGECQERERVLTHFSRRYCQCN [T6C]: the protein stability index was 4.24.
To PLMGEKQERERVLTHFSRRYCQCN [T6K] belongs 2.14; to PLMGEAQERERVLTHFSRRYCQCN [T6A], 3.27.
Under PLMGESQERERVLTHFSRRYCQCN [T6S] stands 2.18; under PLMGEYQERERVLTHFSRRYCQCN [T6Y], 2.33.
PLMGEVQERERVLTHFSRRYCQCN [T6V]: the protein stability index was determined as 2.44.
Under PLMGEHQERERVLTHFSRRYCQCN [T6H] stands 3.15; under PLMGERQERERVLTHFSRRYCQCN [T6R], 2.95.
To PLMGETQERERVLTHQSRRYCQCN [F16Q] belongs 4.78; to PLMGETQERERVLTHPSRRYCQCN [F16P], 3.9; to PLMGETQERERVLTHGSRRYCQCN [F16G], 3.84.
For the variant PLMGETQERERVLTHRSRRYCQCN [F16R], the protein stability index turned out to be 2.21.
On to PLMGETQERERVLTHHSRRYCQCN [F16H], for which the protein stability index was 4.05.
Under PLMGETQERERVLTHSSRRYCQCN [F16S] stands 4.35; under PLMGETQERERVLTHDSRRYCQCN [F16D], 4.44; under PLMGETQERERVLTHMSRRYCQCN [F16M], 3.09.
PLMGETQERERVLTHFSRHYCQCN [R19H]: the protein stability index worked out at 3.24.
To PLMGETQERERVLTHFSRNYCQCN [R19N] belongs 3.54; to PLMGETQERERVLTHFSRSYCQCN [R19S], 3.28; to PLMGETQERERVLTHFSRCYCQCN [R19C], 3.28.
On to PLMGETQERERVLTHFSRTYCQCN [R19T], for which the protein stability index came out at 3.21.
In the case of PLMGETQERERVLTHFSRPYCQCN [R19P], the protein stability index turned out to be 3.59.
Under PLMGETQERERVLTHFSRGYCQCN [R19G] stands 3.71; under PLMGETQERERILTHFSRRYCQCN [V12I], 3.05.
As to PLMGETQERERWLTHFSRRYCQCN [V12W], the protein stability index came to 3.26.
Under PLMGETQERERGLTHFSRRYCQCN [V12G] stands 3.1.
PLMGETQERERALTHFSRRYCQCN [V12A]: the protein stability index was 3.49.
To PLMGETQERERVLTHFSRRGCQCN [Y20G] belongs 3.86; to PLMGETQERERVLTHFSRRWCQCN [Y20W], 2.42; to PLMGETQERERVLTHFSRRMCQCN [Y20M], 2.69.
As for PLMGETQERERVLTHFSRRECQCN [Y20E], the protein stability index stood at 4.57.
Under PLMGETQERERVLTHFSRRICQCN [Y20I] stands 2.62; under PLMGETQERERVLTHFSRRKCQCN [Y20K], 3.92; under PLMGETQERERVLTHFSRRPCQCN [Y20P], 3.72.
Turning to PLMGETQERERVLTHFSRRNCQCN [Y20N], the protein stability index came out at 3.81.
Under PLMGETQERERVLTHFSRRFCQCN [Y20F] stands 2.96; under PLMGETQERERVLTHFSRRDCQCN [Y20D], 4.19; under PLMGETQERERVLTHFSRRYFQCN [C21F], 3.27.
Under PLMGETQERERVLTHFSRRYNQCN [C21N] stands 3.29; under PLMGETQERERVLTHFSRRYMQCN [C21M], 3.61.
As to PLMGETQERERVLTHFSRRYWQCN [C21W], the protein stability index was 3.17.
To PLMGETQERERVLTHFSRRYIQCN [C21I] belongs 3.06; to PLMGETQERERVLTHFSRRYPQCN [C21P], 3.92; to PLMGETQERERVLTHFSRRYEQCN [C21E], 3.81.
For PLMGETQERERVLTHFSRRYHQCN [C21H], the protein stability index was 2.62.
To PLMGETQERERVLTHFSRRYTQCN [C21T] belongs 4.43; to PLMGETQERERVLTHFSRRYQQCN [C21Q], 3.67; to PLMGETQERERVLTHFIRRYCQCN [S17I], 1.49.
In the case of PLMGETQERERVLTHFQRRYCQCN [S17Q], the protein stability index was determined as 2.97.
To PLMGETQERERVLTHFKRRYCQCN [S17K] belongs 2.95.
To PLMGETQERERVLTHFFRRYCQCN [S17F] belongs 1.68; to PLMGETQERERVLTHFGRRYCQCN [S17G], 3.85.
To PLMGETQERERVLTHFNRRYCQCN [S17N] belongs 3.15; to PLMGETQERSRVLTHFSRRYCQCN [E10S], 2.14.
On to PLMGETQERMRVLTHFSRRYCQCN [E10M], for which the protein stability index came out at 1.93.
Under PLMGETQERKRVLTHFSRRYCQCN [E10K] stands 2.58; under PLMGETQERTRVLTHFSRRYCQCN [E10T], 2.07; under PLMGETQERPRVLTHFSRRYCQCN [E10P], 2.03.
Turning to PLMGETQERCRVLTHFSRRYCQCN [E10C], the protein stability index stood at 2.92.
Consider PLMGETQERERVNTHFSRRYCQCN [L13N], for which the protein stability index was 2.93.
In the case of PLMGETQERERVETHFSRRYCQCN [L13E], the protein stability index is 3.6.
To PLMGETQERERVFTHFSRRYCQCN [L13F] belongs 2.51; to PLMGETQERERVSTHFSRRYCQCN [L13S], 2.52.
Turning to PLMGETQERERVCTHFSRRYCQCN [L13C], the protein stability index came out at 4.49.
To PLMGETQERERVATHFSRRYCQCN [L13A] belongs 2.71; to PLMGETQERERVTTHFSRRYCQCN [L13T], 2.65.
PLMGETQERERVGTHFSRRYCQCN [L13G]: the protein stability index was determined as 3.52.
PLMGETQERERVHTHFSRRYCQCN [L13H]: the protein stability index was 3.6.
Take PLMGETQERERVPTHFSRRYCQCN [L13P]: the protein stability index worked out at 3.19.
On to PLMGETQEDERVLTHFSRRYCQCN [R9D], for which the protein stability index amounted to 3.79.
For the variant PLMGETQEGERVLTHFSRRYCQCN [R9G], the protein stability index came to 2.98.
Under PLMGETQEYERVLTHFSRRYCQCN [R9Y] stands 2.14; under PLMGETQEQERVLTHFSRRYCQCN [R9Q], 2.18; under PLMGETQENERVLTHFSRRYCQCN [R9N], 4.17.
Take PLMGETQEVERVLTHFSRRYCQCN [R9V]: the protein stability index turned out to be 2.94.
On to PLMGETQEEERVLTHFSRRYCQCN [R9E], for which the protein stability index amounted to 4.05.
Consider PLMGETQELERVLTHFSRRYCQCN [R9L], for which the protein stability index was 2.41.
For PLMGETQEKERVLTHFSRRYCQCN [R9K], the protein stability index was 3.21.
To PLMGETQECERVLTHFSRRYCQCN [R9C] belongs 2.68.
With PLMGETQEFERVLTHFSRRYCQCN [R9F], the protein stability index is 2.23.
Turning to PLMGETQEWERVLTHFSRRYCQCN [R9W], the protein stability index is 1.46.
To PLMGWTQERERVLTHFSRRYCQCN [E5W] belongs 1.86; to PLMGNTQERERVLTHFSRRYCQCN [E5N], 2.69; to PLMGKTQERERVLTHFSRRYCQCN [E5K], 2.2.
Under PLMGVTQERERVLTHFSRRYCQCN [E5V] stands 1.92; under PLMGPTQERERVLTHFSRRYCQCN [E5P], 2.94; under PLMGFTQERERVLTHFSRRYCQCN [E5F], 2.74.
On to PLMGLTQERERVLTHFSRRYCQCN [E5L], for which the protein stability index is 2.08.
For the variant PLMIETQERERVLTHFSRRYCQCN [G4I], the protein stability index came to 2.76.
Consider PLMKETQERERVLTHFSRRYCQCN [G4K], for which the protein stability index is 2.6.
To PLMAETQERERVLTHFSRRYCQCN [G4A] belongs 3.3; to PLMWETQERERVLTHFSRRYCQCN [G4W], 2.07; to PLMTETQERERVLTHFSRRYCQCN [G4T], 3.86.

For the origin of these results see the supplement of paper PMC10567573.
